“Also recorded” adds a separate entry of the source. One block for each substance: values may come before it.
Assays:
[1] = molecular target: T1, Hdm2 210-275 (Homo sapiens, UniProt Q00987); assay: CD-based binding assay, induction of β-strand secondary structure with Hdm2 210-275
T1 construct: poly-His (thrombin cleavable, pET28a) (cleaved yes); made in house; host or cells: E. coli BL21(DE3)
Experimental: Circular Dichroism. Spectra were recorded at 25° C. using an Aviv Model 62A DS circular dichroism spectropolarimeter (Aviv Instruments, Inc.) equipped with a thermoelectric temperature control unit. All samples were prepared in 10 mM Tris-HCl, pH 7.0 at 0.02-0.2 mM as determined by amino acid analysis. Spectra were recorded using 1 mm quartz cuvettes and reported spectra are the average of 10 scans over the range […]. Melting experiments were recorded in 10 mm quartz cuvettes with active stirring. The signal at 216 nm (β strand minimum) was used to monitor structural changes and the signal was averaged over 15 sec. The sample temperature was increased in 1° C. steps.
β-strand secondary structure forms when Arf and Hdm2 interact. […] This structural transition is induced when mArfN37 is added to an Hdm2 fragment and when an Hdm2 fragment is added to mArfN37. […] In contrast, the uncomplexed species elute at times consistent with monodisperse, conformationally extended polypeptides. Second, NMR resonances for ^15N-mArfN37 or ^15N-Hdm2 210-304 (and ^15N-Hdm2 210-275) are broadened beyond detection when an unlabeled form of the appropriate binding partner is added to the solution. At mArfN37:Hdm2 210-304 (or mArfN37:Hdm2 210-275) molar ratios that produce maximal β-strand secondary structure based on ellipticity at 200 nm using CD, resonances cannot be observed for the isotope-labeled component of Arf/Hdm2 mixtures. Further, the NMR spectra are consistent with slow exchange between the free and bound states.
Characterization of Arf Hdm2 assemblies. As discussed above, the addition of mArfN37 to Hdm2 210-304 results in the formation of supramolecular assemblies comprised of β-strands. Stepwise addition of sub-stoichiometric amounts of mArfN37 to Hdm2 210-304 increased β-strand secondary structure content as judged by the change in ellipticity at 200 nm using CD. […] The binding of mArfN37 to Hdm2 210-304, as monitored in this way, is saturable. Similar results were obtained when mArfN37 was mixed with the shorter fragment of Hdm2, Hdm2 210-275. Further, saturable binding is also observed when the Hdm2 fragments were added to an excess of mArfN37. These findings indicate that there are a limited number of binding sites for mArfN37 within Hdm2 210-304 and that discreet structures (containing β-strands) form when mArfN37 and Hdm2 210-304 (or 210-275) are mixed. […] Similar behavior is observed when mArfN37 binds Hdm2 210-275.

[2] = molecular target: T2, GFP-p19^Arf (Mus musculus, UniProt Q64364); assay: Microinjection and live cell imaging of Texas Red labeled Hdm2 constructs in NIH 3T3 cells lacking Arf; format: cell-based; conditions: for localization after nuclear microinjection in the presence of GFP-p19^Arf: transfected with GFP-p19^Arf
T2 construct: expressed in transfected cells; host or cells: NIH 3T3 Arf-/- cells
T2 sequence (Q64364 1-169): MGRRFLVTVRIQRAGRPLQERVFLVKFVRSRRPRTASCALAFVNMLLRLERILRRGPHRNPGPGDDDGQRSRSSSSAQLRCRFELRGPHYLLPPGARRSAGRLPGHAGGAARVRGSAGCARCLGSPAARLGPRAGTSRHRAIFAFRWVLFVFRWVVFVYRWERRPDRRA
Experimental: Fluorescent labeling. Proteins for fluorescence microimaging studies were covalently modified using an amine-reactive, sulfosuccinimidyl ester of TEXAS RED® (C31H29S2N2O6Cl1) (Molecular Probes, Inc., Cat. # C-1171). In brief, purified Hdm2-derived proteins were dialyzed into 100 mM sodium bicarbonate buffer, pH 8.3 at 2-4 mg/ml. The Texas Red™ dye was dissolved in dimethylsulfoxide at 10 mg/ml. Protein and dye 3:1 (vol:vol) were reacted for 1 hour at room temperature followed by purification using size-exclusion chromatography (NAP 5 G-25 columns, Amersham Pharmacia Biotech, Inc.). Labeled protein bands migrated more slowly than unlabeled protein in SDS-polyacrylamide gels consistent with the covalent attachment of dye.
Cell culture and microinjection. NIH 3T3 Arf^−/− cells passage 10-15 were cultured in Dulbecco's modified Eagle's medium (Dulbecco's modified Eagle's medium (DMEM); Gibco-Invitrogen, Inc.), 10% fetal bovine serum (FBS) at 37° C., 7% CO2. […] GFP-Arf positive cells were then located and co-injected with TEXAS RED® (C31H29S2N2O6C1 labeled Hdm2 polypeptides (2 mg/ml in 20 mM Tris-HCl, 100 mM NaCl, pH 7.0) using a Micromanipulator 5171/Transjector 5246 (Eppendorf, AG) in media supplemented with 10 mM HEPES, pH 7.2 to buffer cell media during injection and imaging. Representative cells were imaged over time. An Axiovert 135 TV inverted fluorescence microscope with an automated stage controller (Carl Zeiss, Inc.) and circulating water bath heater (Fisher) was used for both microinjection and imaging. Images were acquired with a Zeiss 40×NA=1.30 oil objective and MicroMax CCD camera (Princeton Instruments Inc.) operated with MetaMorph Version 4.01 imaging software. […]
TEXAS RED® (C31H29S2N2O6Cl1) labeled Hdm2 deletion constructs containing residues 210-275, 210-304, 277-350 and 277-491 were individually injected into cells in the absence or presence of the GFP-p19^Arf fusion protein. […] The use of live cell imaging also allowed the kinetics of localization to be monitored. […]

[3] = molecular target: T3, mArfN37 (Mus musculus, UniProt Q64364); assay: Surface plasmon resonance: Hdm2 fragments and peptides binding to immobilized His-tagged mArfN37
T3 construct: mouse p19^Arf corresponding to residues 1-37 (mArfN37); made in house; host or cells: E. coli BL21(DE3) (purified 'in a similar manner' to the Hdm2 fragments)
T3 sequence (Q64364 1-37 limits assumed): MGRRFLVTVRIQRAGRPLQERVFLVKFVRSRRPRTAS
Experimental: Surface Plasmon Resonance. Binding studies were performed using a Biacore 3000 surface plasmon resonance (SPR) instrument (Biacore, Inc.). A Tetra-His™ Antibody (Qiagen, Inc.; Cat. #34670) was covalently attached to a carboxymethylated gold surface (C-1 chip; Biacore, Inc.). The carboxymethyl groups on the surface were activated with N-ethyl-N′-(3-dimethylaminopropyl) carbodiimide (EDC) and N-hydroxysuccinimide (NHS) and the antibody was attached at pH 7.4 in 20 mM sodium phosphate buffer, 150 mM NaCl (PBS). Reactive sites remaining on the surface were blocked by reaction with ethanolamine. […] Binding was measured by flowing the non-His-tagged analyte through the reference and ligand-containing flow cells in sequence. […] Changes in the SPR response due to solvent differences and the injection process were monitored by injection of HBS-N buffer alone. […]
Small segments of Arf and Hdm2 participate in Arf/Hdm2 interactions. […] However, because mArfN37 is a relatively small polypeptide, it was determined whether it could bind a correspondingly small segment of Hdm2. To test this hypothesis and to monitor Arf/Hdm2 binding reactions quantitatively, Hdm2 constructs were prepared spanning amino acids 210-304 of SEQ ID NO:8 and 210-275 of SEQ ID NO:8 and then it was determined whether they could bind mArfN37 using surface plasmon resonance (SPR). […]

T1 sequence (Q00987 210-275): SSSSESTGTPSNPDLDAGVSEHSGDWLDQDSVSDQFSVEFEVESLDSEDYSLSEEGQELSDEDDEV

- induction of β-strand secondary structure/assembly when mixed with Hdm2 210-275 (CD) [1]: interaction
Substance: MVRRFLVTLRIRRA (listed as Homo sapiens) [human A1 (1-14), peptide of the first Arf motif of human p14^Arf, residues 1-14]

- induction of β-strand secondary structure/assembly when mixed with Hdm2 210-275 (CD) [1]: fail to induce β-strand assembly
Substance: mouse A2 (16-30): peptide corresponding to the second mouse Arf motif, residues 16-30 (RPLQERVFLVKFVRS)

- induction of β-strand secondary structure/assembly when mixed with Hdm2 210-275 (CD) [1]: fail to induce β-strand assembly
Substance: human A2 (16-30): peptide containing the second human Arf motif, residues 16-30 (GPPRVRVFVVHIPRL)

- binding of Hdm2 fragment to His-tagged mArfN37 immobilized on SPR biosensor surface ([3]; Hdm2 protein fragments as analyte, no binding to control surface): bind tightly
- localization after nuclear microinjection in the absence of Arf ([2]; no GFP-p19^Arf): evenly dispersed in the nucleoplasm
Substance: Hdm2 210-304: Arf-binding domain of Hdm2, amino acids 210-304 of SEQ ID NO:8
- localization after nuclear microinjection in the presence of GFP-p19^Arf [2]: co-localized within nucleoli; also recorded: nucleolar localization

More lines, now with the values behind:

Substance: mouse A1 (1-14): peptide corresponding to the first mouse Arf motif, residues 1-14 (MGRRFLVTVRIQRA)
- induction of β-strand secondary structure/assembly when mixed with Hdm2 210-275 (CD) [1]: interaction

Substance: Hdm2 277-491: Texas Red labeled Hdm2 deletion construct containing residues 277-491
- localization after nuclear microinjection in the presence of GFP-p19^Arf [2]: nucleolar localization

Substance: peptide containing residues 290-304: short synthetic Hdm2 peptide, residues 290-304 of SEQ ID NO:8 (SFEEDPEISLADYWK; listed as Homo sapiens)
- relative affinity of Hdm2 synthetic peptides for mArfN37 (SPR) ([3]; 15 amino acid peptides of the central region of Hdm2): modest affinity

Reference: patent publication US7704703B2, “Arf and Hdm2 interaction domains and the methods of use thereof” (St. Jude Children's Research Hospital, Inc., priority 2002, dated 2010)
